# US9481899B2, “Methods and compositions for producing hydrocarbons” (priority 2008, dated 2016)
# B1: SEQ ID NO: 29: Cyanothece sp. PCC7425 Cyan7425_0398, putative decarbonylase (protein, listed as Cyanothece sp.)
# chain: MPQVQSPSAIDFYSETYQDAYSRIDAIVIEGEQEAHDNYLKLTELLPDCQEDLVRLAKMEARHKKGFEACGRNLKVTPDMEFAQQFFADLHNNFQKAAAANKIATCLVIQALIIECFAIAAYNIYIPVADDFARKITENVVKDEYTHLNFGEEWLKANFDSQREEVEAANRENLPIVWRMLNQVETDAHVLGMEKEALVESFMIQYGEALENIGFSTREIMRMSVYGLSAA
# B2: SEQ ID NO: 3: Synechocystis sp. PCC6803 sll0208, putative decarbonylase (protein, listed as Synechocystis sp.)
# chain: MPELAVRTEFDYSSEIYKDAYSRINAIVIEGEQEAYSNYLQMAELLPEDKEELTRLAKMENRHKKGFQACGNNLQVNPDMPYAQEFFAGLHGNFQHAFSEGKVVTCLLIQALIIEAFAIAAYNIYIPVADDFARKITEGVVKDEYTHLNYGEEWLKANFATAKEELEQANKENLPLVWKMLNQVQGDAKVLGMEKEALVEDFMISYGEALSNIGFSTREIMRMSSYGLAGV
# B3: SEQ ID NO: 13: Synechococcus sp. JA-3-3Ab CYA_0415, putative decarbonylase (protein, listed as Synechococcus sp.)
# chain: MAPANVLPNTPPSPTDGGGTALDYSSPRYRQAYSRINGIVIEGEQEAHDNYLKLAEMLPEAAEELRKLAKMELRHMKGFQACGKNLQVEPDVEFARAFFAPLRDNFQSAAAAGDLVSCFVIQSLIIECFAIAAYNIYIPVADDFARKITEGVVKDEYLHLNFGERWLGEHFAEVKAQIEAANAQNLPLVRQMLQQVEADVEAIYMDREAIVEDFMIAYGEALASIGFNTREVMRLSAQGLRAA
# B4: SEQ ID NO: 31: Cyanothece sp. PCC7425 Cyan7425_2986, putative decarbonylase (protein, listed as Cyanothece sp.)
# chain: MSDCATNPALDYYSETYRNAYRRVNGIVIEGEKQAYDNFIRLAELLPEYQAELTRLAKMEARHQKSFVACGQNLKVSPDLDFAAQFFAELHQIFASAANAGQVATCLVVQALIIECFAIAAYNTYLPVADEFARKVTASVVQDEYSHLNFGEVWLQNAFEQCKDEIITANRLALPLIWKMLNQVTGELRILGMDKASLVEDFSTRYGEALGQIGFKLSEILSLSVQGLQAVTP
# B5: SEQ ID NO: 27: Cyanothece sp. ATCC51142 cce_0778, putative decarbonylase (protein, listed as Cyanothece sp.)
# chain: MQELALRSELDFNSETYKDAYSRINAIVIEGEQEAYQNYLDMAQLLPEDEAELIRLSKMENRHKKGFQACGKNLNVTPDMDYAQQFFAELHGNFQKAKAEGKIVTCLLIQSLIIEAFAIAAYNIYIPVADPFARKITEGVVKDEYTHLNFGEVWLKEHFEASKAELEDANKENLPLVWQMLNQVEKDAEVLGMEKEALVEDFMISYGEALSNIGFSTREIMKMSAYGLRAA
# B6: SEQ ID NO: 11: Thermosynechococcus elongatus BP-1 tll1313, putative decarbonylase (protein, listed as Thermosynechococcus elongatus)
# chain: MTTATATPVLDYHSDRYKDAYSRINAIVIEGEQEAHDNYIDLAKLLPQHQEELTRLAKMEARHKKGFEACGRNLSVTPDMEFAKAFFEKLRANFQRALAEGKTATCLLIQALIIESFAIAAYNIYIPMADPFARKITESVVKDEYSHLNFGEIWLKEHFESVKGELEEANRANLPLVWKMLNQVEADAKVLGMEKDALVEDFMIQYSGALENIGFTTREIMKMSVYGLTGA
# B7: SEQ ID NO: 49: Prochlorococcus marinus MIT9313 PMT1231, putative decarbonylase, codon optimized for E. coli (protein, listed as Prochlorococcus marinus)
# chain: MPTLEMPVAAVLDSTVGSSEALPDFTSDRYKDAYSRINAIVIEGEQEAHDNYIAIGTLLPDHVEELKRLAKMEMRHKKGFTACGKNLGVEADMDFAREFFAPLRDNFQTALGQGKTPTCLLIQALLIEAFAISAYHTYIPVSDPFARKITEGVVKDEYTHLNYGEAWLKANLESCREELLEANRENLPLIRRMLDQVAGDAAVLQMDKEDLIEDFLIAYQESLTEIGFNTREITRMAAAALVS
# B8: SEQ ID NO: 51: Prochlorococcus mariunus NATL2A PMN2A_1863, putative decarbonylase, codon optimized for E. coli (protein, listed as Prochlorococcus marinus)
# chain: MQAFASNNLTVEKEELSSNSLPDFTSESYKDAYSRINAVVIEGEQEAYSNFLDLAKLIPEHADELVRLGKMEKKHMNGFCACGRNLAVKPDMPFAKTFFSKLHNNFLEAFKVGDTTTCLLIQCILIESFAISAYHVYIRVADPFAKRITEGVVQDEYLHLNYGQEWLKANLETVKKDLMRANKENLPLIKSMLDEVSNDAEVLHMDKEELMEEFMIAYQDSLLEIGLDNREIARMALAAVI
# Tested on: E. coli MG1655
# Assay: Coexpression of decarbonylase and aldehyde-generating enzyme in E. coli, GC-MS of hydrocarbons
# Assay type: cell-based
# Settings: for Production of Alkanes and Alkenes: alkane/alkene biosynthetic polypeptide coexpressed in E. coli with the aldehyde biosynthetic polypeptide of the same table row; for fatty aldehyde decarbonylase activity in E. coli: cotransformed with S. elongatus PCC7942_1594 into E. coli MG1655, M9 minimal media, 37° C.
# Description: Seven cyanobacteria, whose complete genome sequences are publicly available, were selected for verification and/or detection of alkane biosynthesis: Synechococcus elongatus PCC7942, Synechococcus elongatus PCC6301, Anabaena variabilis ATCC29413, Synechocystis sp. PCC6803, Nostoc punctiforme PCC73102, Gloeobacter violaceus ATCC 29082, and Prochlorococcus marinus CCMP1986. Only the first three cyanobacterial strains from this list had previously been reported to contain alkanes (Han et al., J. Am. Chem. Soc. 91:5156-5159 (1969); Fehler et al., Biochem. 9:418-422 (1970)). The strains were grown photoautotrophically in shake flasks in 100 mL of the appropriate media (listed in Table 8) for 3-7 days at 30° C. at a light intensity of approximately 3,500 lux. Cells were extracted for alkane detection as follows: cells from 1 mL culture volume were centrifuged for 1 min at 13,000 rpm, the cell pellets were resuspended in methanol, vortexed for 1 min and then sonicated for 30 min. After centrifugation for 3 min at 13,000 rpm, the supernatants were transferred to fresh vials and analyzed by GC-MS. The samples were analyzed on either 30 m DP-5 capillary column (0.25 mm internal diameter) or a 30 m high temperature DP-5 capillary column (0.25 mm internal diameter) using the following method.
# After a 1 μL splitless injection (inlet temperature held at 300° C.) onto the GC/MS column, the oven was held at 100° C. for 3 mins. The temperature was ramped up to 320° C. at a rate of 20° C./min. The oven was held at 320° C. for an additional 5 min. The flow rate of the carrier gas helium was 1.3 mL/min. The MS quadrapole scanned from 50 to 550 m/z. Retention times and fragmentation patterns of product peaks were compared with authentic references to confirm peak identity.
# The genomic DNA encoding Synechococcus elongatus PCC7942 orf1594 (YP_400611; putative aldehyde-generating enzyme) (SEQ ID NO:65) was amplified and cloned into the NcoI and EcoRI sites of vector OP-80 (pCL1920 derivative) under the control of the Ptrc promoter. The resulting construct (“OP80-PCC7942_1594”) was transformed into E. coli MG1655 and the cells were grown at 37° C. in M9 minimal media with 1% (w/v) glucose as carbon source and supplemented with 100 μg/mL spectinomycin. When the culture reached OD600 of 0.8-1.0, it was induced with 1 mM IPTG and cells were grown for an additional 18-20 h at 37° C. Cells from 0.5 mL of culture were extracted with 0.5 mL of ethyl acetate. After sonication for 60 min, the sample was centrifuged at 15,000 rpm for 5 min. The solvent layer was analyzed by GC-MS as described in Example 1.
# The genomic DNA encoding Synechococcus elongatus PCC7942 orf1593 (YP_400610; putative decarbonylase) (SEQ ID NO:1) was amplified and cloned into the NdeI and XhoI sites of vector OP-183 (pACYC derivative) under the control of the Ptrc promoter. The resulting construct was cotransformed with OP80-PCC7942_1594 into E. coli MG1655 and the cells were grown at 37° C. in M9 minimal media supplemented with 100 μg/mL spectinomycin and 100 μg/mL carbenicillin. The cells were cultured and extracted as in Example 3 and analyzed by GC-MS as described in Example 1. […]
Molecule,Production of Alkanes and Alkenes,fatty aldehyde decarbonylase activity in E. coli
"SEQ ID NO: 1: Synechococcus elongatus PCC7942 orf1593, putative decarbonylase",yes,active fatty aldehyde decarbonylase
B1,yes,active fatty aldehyde decarbonylase
B2,yes,
B3,yes,
B4,yes,active fatty aldehyde decarbonylase
B5,yes,active fatty aldehyde decarbonylase
B6,yes,active fatty aldehyde decarbonylase
B7,yes,active fatty aldehyde decarbonylase
B8,yes,active fatty aldehyde decarbonylase
